Target: human TIGIT-Fc antigen (human) (UniProt Q495A1)
Experiment: ELISA on plate-coated human TIGIT-Fc (3 ug/ml), scFv from 80 nM in 1/3 steps, anti-His-HRP, OD450; value is C of the printed 4-P fit; the sheet prints no unit, nM from paragraph 123

Chain of human TIGIT-Fc antigen (human) (Q495A1 22-141 T103A limits assumed): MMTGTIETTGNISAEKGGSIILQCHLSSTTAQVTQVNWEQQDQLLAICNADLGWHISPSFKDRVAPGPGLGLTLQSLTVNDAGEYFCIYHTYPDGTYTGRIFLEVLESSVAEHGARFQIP

B1: 1F10 (scFv-type anti-TIGIT antibody) (scFv, part only; not given: linker, domain order, His tag, V domains shown, not shown: another chain or arm of the molecule; small tags and cut ends)
VH: EVQLVESGGGLVKPGGSLRISCAASGFTFSNYNMIWVRQAPGKGLEWVSSISSSASYIYYADSVKGRFTISRDNAKNSLYLQMNSLRAEDTAVYYCARDEGSRDSWNNGPYYYSGMDVWGQGTTVTVSS
VL: AIQMTQSPSSLSASVGDRVTITCRASQSISRYLNWYQHKPGKAPKLLIYGASSLQSGVPSRFRGSGSGTDFTLTISSLQPEDFATYYCQQSYTTPGAFTFGGGTKVEIK
EC50: 526 pM
